Target: the molecule itself
Assay: SEC + native gel or EMSA

B1: Bmp3, FAD-dependent prolyl-S-Bmp1(CP) oxidase (enzyme, Marinomonas mediterranea MMB-1)
chain: MNFEWTHEQAELFEHALRFGKELSAPLQEDNGFPRDNWNALGDFGYFGLPIPEKYAKDGSGFDILTTIKIIEGLGQSCTDTGLLFAGAAHTFACSMPILEHGSETLKHQLLPDLATGRKIAANAISEASAGSDISNLATTAQKEGDYYVLNGGKSYVTNGSIADYYVVYATTNKKHGYLGQTAFVVPRNTPGISVGNDYHKLGLRSAPLNQVFFDNCTIHKDYALGREGQGARIFAASMDWERCCLFAIFVGAMQRDLNQCIEYANTRMQGDKTISRFQAVSHRIADMGVRLESARLMLYYAAWQKSQDVDNTKAVAMSKLAISEAFVQSGIDSIRVHGALGYLDEGRVNNSIKDALGSVLFSGTSDIQRELICNRLGLL
stoichiometry N: 4
